{"source": "patent US20180118786A1", "about": "“NOVEL lNHIBITORS OF THE ENZYME ACTIVATED FACTOR XII (FXIIA)” (ECOLE POLYTECHNIQUE FEDERALE DE LAUSANNE (EPFL), priority 2015, published 2018)", "molecules": {"B1": {"name": "CTI: 13.6 kDa protein isolated from corn seeds inhibiting FXIIa (protein)", "chain": "SAGTSCVPGWAIPHNPLPSCRWYVTSRTCGIGPRLPWPELKRRCCRELADIPAYCRCTALSILMDGAIPPGPDAQLEGRLEDLPGCPREVQRGFAATLVTEAECNLATISGVAECPWILGGGTMPSK"}}, "key": {"[1]": {"system": "intrinsic pathway (contact activation)", "assay": "Thrombin generation assay by CAT triggered by ellagic acid", "assay_type": "biochemical, human", "details": "ellagic acid trigger, 100 μg/mL", "protocol": "(§1) Thrombin generation was performed as previously described with some modifications.30 In brief, 60 μL platelet poor plasma (PPP), 20 μL FXIIa inhibitor/HA buffer (Hepes 20 mM, NaCl 140 mM, pH 7.4, 5 mg/mL BSA), and 20 μL PPP reagent, PPP LOW reagent, MP reagent or Actin FS (1:170 diluted in HA buffer) were mixed in a 96-well microtiter plate (Immulon 2HB; Thermo Fisher Scientific) and incubated for 15 min at 37° C. Thrombin generation was triggered by the addition of 20 μL of substrate/calcium chloride buffer (FLUKA) at 37° C. Samples were tested in triplicate for each condition. Fluorogenic thrombin substrate hydrolysis was measured every 20 s for 120 min on a microplate fluorometer (Fluoroskan Ascent FL; Thermo Fisher Scientific) with a 390/460-nm (excitation/emission) filter set. Data analysis was performed on the Thrombinoscope software (Synapse By). PPP reagent (TF […], PL 4 μM), PPP LOW reagent (TF […], PL 4 μM), MP reagent (PL 4 μM), thrombin calibrator and FLUKA were purchased from Synapse By."}, "[2]": {"system": "thrombin generation in platelet poor plasma", "assay": "Thrombin generation assay by CAT, TF-triggered or without trigger", "assay_type": "biochemical, human", "set-up": "lag time: unit not given here", "details": "100 μg/mL inhibitor", "protocol": "as §1\nVenous blood was collected from healthy volunteers by antecubital venipuncture with 19-gauge needles in 3,2% (w/v) citrated Monovette plastic tubes. In order to minimize contact activation, the first collection tube containing EDTA was discarded according to standard procedures. […] Blood was then processed to PPP by an initial centrifugation step at 2,000 g for 5 min followed by a second centrifugation step at 10,000 g for 10 min. Plasma aliquots were stored at −80 until analysis."}, "[3]": {"target": "FXIIa", "sequence (P00748 373-615 limits assumed, other chains not shown)": "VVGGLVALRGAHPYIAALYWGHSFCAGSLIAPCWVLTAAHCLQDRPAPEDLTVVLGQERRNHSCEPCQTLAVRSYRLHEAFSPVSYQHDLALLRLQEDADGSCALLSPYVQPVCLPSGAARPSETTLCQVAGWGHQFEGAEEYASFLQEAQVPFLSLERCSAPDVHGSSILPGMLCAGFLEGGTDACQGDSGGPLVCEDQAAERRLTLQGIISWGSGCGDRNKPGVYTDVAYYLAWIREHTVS", "details": "cited from earlier work"}, "[4]": {"system": "thrombin generation in platelet poor plasma", "assay": "Thrombin generation assay by CAT, TF-triggered or without trigger", "assay_type": "biochemical, human", "details": "1 pM TF, 100 μg/mL inhibitor"}, "[5]": {"system": "intrinsic pathway of coagulation", "assay": "aPTT in human plasma (Example 1)", "assay_type": "biochemical", "details": "citrated platelet poor plasma, 100 μg/mL inhibitor", "protocol": "aPTT, PT and FXII coagulant activity (FXII:c) measurements Coagulation times (aPTT, PT) and FXIIa activity were determined in human plasma using an automated blood coagulation analyzer (Sysmex CS-5100, Siemens, Eschborn, Germany) with according to the manufacturer's instructions (Siemens). Extrinsic coagulation was triggered with Innovin® (recombinant human tissue factor, synthetic phospholipids and calcium in stabilized HEPES buffer system; Dade Behring/Simens). Intrinsic coagulation was triggered with Pathromtin* SL (Siemens). Human plasma used in this study was derived from a pool of fresh frozen plasma units provided by the Service Regional Vaudois de Transfusion Sanguine, Switzerland.\nCoagulation times (aPTT, PT) and FXIIa activity were determined, at least in duplicate, in human plasma using an automated blood coagulation analyzer (Sysmex CA-7000) with standard reagents according to the manufacturer's instructions (Siemens Healthcare, Eschborn, Germany). Human plasma used in this study was derived from a pool of fresh frozen plasma units provided by the Service Regional Vaudois de Transfusion Sanguine, Switzerland."}, "[6]": {"target": "trypsin (Homo sapiens, UniProt P07477)", "assay": "Specificity FXII618 vs CTI, trypsin", "assay_type": "biochemical", "details": "at a concentration as low as 20 nM"}, "[7]": {"details": "absence of extrinsic- or intrinsic-specific trigger"}}}
{"molecule": "B1", "values": [{"measurement": "reduction of ETP", "setting": "[1]", "value": "~90", "unit": "%"}, {"measurement": "reduction of peak", "setting": "[1]", "value": "> 96", "unit": "%"}, {"measurement": "lag time", "setting": "[2]; 0.25 pM TF", "value": "8.0±0.2"}, {"measurement": "lag time", "setting": "[2]; [7]", "value": "38.7±1.9"}, {"measurement": "peak", "setting": "[2]; [7]", "value": "78.0±6.8"}, {"measurement": "Ki", "setting": "[3]", "value": 24, "unit": "nM"}, {"measurement": "effect on thrombin generation", "setting": "[4]", "value": "no significant effect"}, {"measurement": "aPTT", "setting": "[5]", "value": "65.4 ± 0.5", "unit": "s"}, {"measurement": "inhibition of trypsin activity", "setting": "[6]", "value": "significantly inhibits"}]}
